Test results: patent US20260242478A1 (published 2026)
Where no end group is shown, it is not given here.

Columns and labels:
[1] = biological target: T1, Anti-PSMA Fab (SEQ ID NOs: 19, 20); assay: phage ELISA; PSMA Fab on plate pre-incubated with PSMA antigen as competitor, anti-M13 HRP detection;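 note: crude clonal phage supernatants added to Fab-coated wells still holding PSMA antigen in blocking buffer, with bound phage as read-out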
T1 construct: In the phage ELISA the Fab was biotinylated and captured on neutravidin coated plates; also called 006 PSMA Fab
Procedure: (§1) Clonal phage were harvested as crude supernatants and screened via standard ELISAs. […] Prior to the addition of clonal phage. wells were incubated with blocking buffer and PSMA antigen or blocking buffer alone. Without washing or aspirating, clonal phage supernatants were then added to the wells and incubated for a short time. Wells were then washed followed by detection of bound phage using a horse radish conjugated anti-M13 antibody.

[2] = biological target: T1, Anti-PSMA Fab (SEQ ID NOs: 19, 20); assay: phage ELISA; biotinylated PSMA Fab on neutravidin plate, clonal phage supernatant, anti-M13 HRP detection;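 note: wells preincubated with PSMA antigen in blocking buffer or with blocking buffer only before clonal phage were added for a short incubation, then bound phage detected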
Procedure: as §1

[3] = biological target: T2, Anti-PSMA Fab (SEQ ID NOs: 19, 20); assay: phage binding ELISA; PSMA Fab on plate pre-incubated with PSMA antigen as competitor, anti-M13 HRP detection;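 note: crude clonal phage supernatants added without washing to wells preincubated with PSMA in blocking buffer, compared with wells receiving blocking buffer only, then bound phage detected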
T2 construct: Biotinylated PSMA Fab captured on neutravidin coated plates in the phage ELISA; also called 006 PSMA Fab
Procedure: as §1

[4] = biological target: T2, Anti-PSMA Fab (SEQ ID NOs: 19, 20); assay: phage binding ELISA; biotinylated PSMA Fab on neutravidin plate, clonal phage supernatant, anti-M13 HRP detection;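 note: wells were preincubated with blocking buffer either containing PSMA antigen or without it before crude phage supernatant was added, briefly incubated, then washed prior to detection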
Procedure: as §1

[5] = biological target: T3, Anti-PSMA Fab (SEQ ID NOs: 19, 20); assay: phage binding ELISA on captured anti-PSMA Fab; competitor: PSMA antigen pre-incubated in the wells
T3 construct: Biotinylated PSMA Fab captured on neutravidin coated plates in the phage ELISA; also called 006 PSMA Fab
Procedure: as §1

[6] = biological target: T3, Anti-PSMA Fab (SEQ ID NOs: 19, 20); assay: phage binding ELISA; biotinylated anti-PSMA Fab on neutravidin plate, bound phage detected with anti-M13-HRP
Procedure: as §1

B1: Phage-1860 (peptide)
peptide: GDNWCKPEWMCIGF
modifications: cysteine pairing not given here; also: displayed on phage as pIII fusion, pIII and linker sequences not given here
notes: Clone of the Peptide-180 library
[1]
  Phage binding ELISA, Anti-PSMA Fab signal in the presence of PSMA: 0.0978
[2]
  Phage binding ELISA, Anti-PSMA Fab signal: 2.16

B2: Phage-1849 (peptide)
peptide: FSHWCIPEWMCSTS
modifications: cysteine pairing not given here; also: displayed on phage as pIII fusion, pIII and linker sequences not given here
notes: as for B1
[1]
  Phage binding ELISA, Anti-PSMA Fab signal in the presence of PSMA: 0.158
[2]
  Phage binding ELISA, Anti-PSMA Fab signal: 2.18

B3: Phage-1855 (peptide)
peptide: MEKWCTPSWMCVGF
modifications: cysteine pairing not given here; also: displayed on phage as pIII fusion, pIII and linker sequences not given here
notes: as for B1
[1]
  Phage binding ELISA, Anti-PSMA Fab signal in the presence of PSMA: 0.148
[2]
  Phage binding ELISA, Anti-PSMA Fab signal: 2.17

B4: Phage-1844 (peptide)
peptide: TDKLCIPEWMCINW
notes: tested as crude clonal phage supernatant
[3]
  Anti-PSMA Fab signal in the presence of PSMA: 0.0602
[4]
  Anti-PSMA Fab (SEQ ID NOs: 19, 20) signal: 2.22

B5: Phage-1845 (peptide)
peptide: FTNWCTPEWMCSGF
notes: as for B4
[3]
  Anti-PSMA Fab signal in the presence of PSMA: 0.0826
[4]
  Anti-PSMA Fab (SEQ ID NOs: 19, 20) signal: 2.21

B6: Phage-1852 (peptide)
peptide: WDHWCTPAWMCEFV
modifications: cysteine pairing not given here; also: displayed on phage as pIII fusion, pIII and linker sequences not given here
notes: as for B1
[1]
  Phage binding ELISA, Anti-PSMA Fab signal in the presence of PSMA: 0.0692
[2]
  Phage binding ELISA, Anti-PSMA Fab signal: 2.17

B7: Phage-1848 (peptide)
peptide: AIPWCIPAWMCQVF
modifications: cysteine pairing not given here; also: displayed on phage as pIII fusion, pIII and linker sequences not given here
notes: as for B1
[1]
  Phage binding ELISA, Anti-PSMA Fab signal in the presence of PSMA: 0.234
[2]
  Phage binding ELISA, Anti-PSMA Fab signal: 2.18

B8: Phage-1854 (peptide)
peptide: WEKWCTPQWMCELI
modifications: cysteine pairing not given here; also: displayed on phage as pIII fusion, pIII and linker sequences not given here
notes: as for B1
[1]
  Phage binding ELISA, Anti-PSMA Fab signal in the presence of PSMA: 0.182
[2]
  Phage binding ELISA, Anti-PSMA Fab signal: 2.17

## DFRWCIPEWMCTGY [Phage-1863]
[5]
  Anti-PSMA Fab signal in the presence of PSMA: 0.11
[6]
  Anti-PSMA Fab (SEQ ID NOs: 19, 20) signal: 2.14

B9: Phage-1853 (peptide)
peptide: MEKWCIPEWMCLHT
modifications: cysteine pairing not given here; also: displayed on phage as pIII fusion, pIII and linker sequences not given here
notes: as for B1
[1]
  Phage binding ELISA, Anti-PSMA Fab signal in the presence of PSMA: 0.0816
[2]
  Phage binding ELISA, Anti-PSMA Fab signal: 2.17

B10: Phage-1858 (peptide)
peptide: VDKWCTPIWMCEGF
modifications: cysteine pairing not given here; also: displayed on phage as pIII fusion, pIII and linker sequences not given here
notes: as for B1
[1]
  Phage binding ELISA, Anti-PSMA Fab signal in the presence of PSMA: 0.0951
[2]
  Phage binding ELISA, Anti-PSMA Fab signal: 2.16

B11: Phage-1847 (peptide)
peptide: SMHWCTPKWMCEGL
modifications: cysteine pairing not given here; also: displayed on phage as pIII fusion, pIII and linker sequences not given here
notes: as for B1
[1]
  Phage binding ELISA, Anti-PSMA Fab signal in the presence of PSMA: 0.147
[2]
  Phage binding ELISA, Anti-PSMA Fab signal: 2.2

## IMKWCIPEWMCYFF [Phage-1864]
[5]
  Anti-PSMA Fab signal in the presence of PSMA: 0.1
[6]
  Anti-PSMA Fab (SEQ ID NOs: 19, 20) signal: 2.14

B12: Phage-1850 (peptide)
peptide: PTKLCIPEWMCYVR
modifications: cysteine pairing not given here; also: displayed on phage as pIII fusion, pIII and linker sequences not given here
notes: as for B1
[1]
  Phage binding ELISA, Anti-PSMA Fab signal in the presence of PSMA: 0.0692
[2]
  Phage binding ELISA, Anti-PSMA Fab signal: 2.17

## LDKWCIPEWMCFDY [Phage-1862]
[5]
  Anti-PSMA Fab signal in the presence of PSMA: 0.0678
[6]
  Anti-PSMA Fab (SEQ ID NOs: 19, 20) signal: 2.14

B13: Phage-1856 (peptide)
peptide: MGNWCIPTWMCTGF
modifications: cysteine pairing not given here; also: displayed on phage as pIII fusion, pIII and linker sequences not given here
notes: as for B1
[1]
  Phage binding ELISA, Anti-PSMA Fab signal in the presence of PSMA: 0.162
[2]
  Phage binding ELISA, Anti-PSMA Fab signal: 2.16

B14: Phage-1859 (peptide)
peptide: VEKWCVPTWMCDWV
modifications: cysteine pairing not given here; also: displayed on phage as pIII fusion, pIII and linker sequences not given here
notes: as for B1
[1]
  Phage binding ELISA, Anti-PSMA Fab signal in the presence of PSMA: 0.0833
[2]
  Phage binding ELISA, Anti-PSMA Fab signal: 2.16

## WEHWCRPAWMCESL [Phage-1866]
[5]
  Anti-PSMA Fab signal in the presence of PSMA: 0.134
[6]
  Anti-PSMA Fab (SEQ ID NOs: 19, 20) signal: 2.12

B15: Phage-1846 (peptide)
peptide: PSMRCIPEWMCAML
modifications: cysteine pairing not given here; also: displayed on phage as pIII fusion, pIII and linker sequences not given here
notes: as for B1
[1]
  Phage binding ELISA, Anti-PSMA Fab signal in the presence of PSMA: 0.0824
[2]
  Phage binding ELISA, Anti-PSMA Fab signal: 2.2

## WENRCTPAWMCKGF [Phage-1867]
[5]
  Anti-PSMA Fab signal in the presence of PSMA: 0.0837
[6]
  Anti-PSMA Fab (SEQ ID NOs: 19, 20) signal: 2.12

## EITRCIPAWMCDFW [Phage-1865]
[5]
  Anti-PSMA Fab signal in the presence of PSMA: 0.081
[6]
  Anti-PSMA Fab (SEQ ID NOs: 19, 20) signal: 2.13

B16: Phage-1851 (peptide)
peptide: SEMLCKPSWMCLGF
modifications: cysteine pairing not given here; also: displayed on phage as pIII fusion, pIII and linker sequences not given here
notes: as for B1
[1]
  Phage binding ELISA, Anti-PSMA Fab signal in the presence of PSMA: 0.0726
[2]
  Phage binding ELISA, Anti-PSMA Fab signal: 2.17

## AVKLCIPEWMCVGQ [Phage-1861]
[5]
  Anti-PSMA Fab signal in the presence of PSMA: 0.0676
[6]
  Anti-PSMA Fab (SEQ ID NOs: 19, 20) signal: 2.15

B17: Phage-1857 (peptide)
peptide: VMKWCIPSWMCSQD
modifications: cysteine pairing not given here; also: displayed on phage as pIII fusion, pIII and linker sequences not given here
notes: as for B1
[1]
  Phage binding ELISA, Anti-PSMA Fab signal in the presence of PSMA: 0.165
[2]
  Phage binding ELISA, Anti-PSMA Fab signal: 2.16
